Assay results taken from patent US12383631 (BRIGHT PEAK THERAPEUTICS, dated 2025).
Substitutions are numbered along the chain they refer to. Names may count otherwise.

T1: human IL-18BP-His (human, UniProt O95998 31-194, limits assumed)
T1 construct: also called His-tagged human IL-18BP; not shown: His tag
T1 sequence (looked up): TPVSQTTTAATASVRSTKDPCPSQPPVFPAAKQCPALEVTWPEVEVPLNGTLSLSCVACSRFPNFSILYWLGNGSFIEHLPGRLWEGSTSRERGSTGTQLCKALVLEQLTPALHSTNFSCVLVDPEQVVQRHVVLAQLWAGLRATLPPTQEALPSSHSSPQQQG

T2: IL-18 receptor (IL-18Rα/IL-18Rβ) on cells (HEK-Blue IL18R reporter cells, NK-92, KG-1) (human, UniProt Q13478 19-541; O95256 20-599)
T2 sequence (looked up) 1: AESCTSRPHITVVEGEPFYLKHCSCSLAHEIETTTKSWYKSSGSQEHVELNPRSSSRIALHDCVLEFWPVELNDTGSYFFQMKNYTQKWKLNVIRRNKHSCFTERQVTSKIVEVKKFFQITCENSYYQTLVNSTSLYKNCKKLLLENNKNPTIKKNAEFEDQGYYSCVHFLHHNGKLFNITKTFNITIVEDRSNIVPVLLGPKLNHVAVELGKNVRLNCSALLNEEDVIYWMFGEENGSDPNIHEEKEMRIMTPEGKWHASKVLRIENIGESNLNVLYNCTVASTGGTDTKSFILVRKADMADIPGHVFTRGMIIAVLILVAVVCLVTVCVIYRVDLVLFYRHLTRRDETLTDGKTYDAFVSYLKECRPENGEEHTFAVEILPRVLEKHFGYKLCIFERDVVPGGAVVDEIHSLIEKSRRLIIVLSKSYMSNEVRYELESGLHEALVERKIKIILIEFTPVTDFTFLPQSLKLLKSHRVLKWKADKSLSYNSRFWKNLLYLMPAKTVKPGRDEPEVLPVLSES
T2 sequence (looked up) 2: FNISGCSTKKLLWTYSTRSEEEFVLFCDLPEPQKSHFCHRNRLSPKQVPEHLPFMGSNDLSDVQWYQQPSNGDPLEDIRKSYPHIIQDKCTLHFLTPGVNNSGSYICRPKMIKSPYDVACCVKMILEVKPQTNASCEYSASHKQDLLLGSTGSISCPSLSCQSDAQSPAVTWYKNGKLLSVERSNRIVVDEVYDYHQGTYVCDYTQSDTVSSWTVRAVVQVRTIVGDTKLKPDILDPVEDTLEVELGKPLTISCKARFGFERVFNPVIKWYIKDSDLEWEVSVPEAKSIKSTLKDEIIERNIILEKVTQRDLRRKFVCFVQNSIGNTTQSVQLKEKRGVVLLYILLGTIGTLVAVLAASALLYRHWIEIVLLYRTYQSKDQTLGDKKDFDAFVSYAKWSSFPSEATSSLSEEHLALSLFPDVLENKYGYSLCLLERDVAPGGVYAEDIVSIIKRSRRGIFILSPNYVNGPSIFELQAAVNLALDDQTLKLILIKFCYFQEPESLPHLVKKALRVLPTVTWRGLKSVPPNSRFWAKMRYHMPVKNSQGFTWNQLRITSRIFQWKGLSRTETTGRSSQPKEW

B1: recombinant Human Fc gamma RI/CD64 Protein (R&D systems, 1257-FC-050) (receptor)
chain: QVDTTKAVITLQPPWVSVFQEETVTLHCEVLHLPGSSSTQWFLNGTATQTSTPSYRITSASVNDSGEYRCQRGLSGRSDPIQLEIHRGWLLLQVSSRVFTEGEPLALRCHAWKDKLVYNVLYYRNGKAFKFFHWNSNLTILKTNISHNGTYHCSGMGKHRYTSAGISVTVKELFPAPVLNASVTSPLLEGNLVTLSCETKLLLQRPGLQLYFSFYMGSKTLRGRNTSSEYQILTARREDSGLYWCEAATEDGNVLKRSPELELQVLGLQLPTP
notes: detected with an anti-His antibody; tag not described; also called FcγRI/CD64; human Fc gamma receptor I
B2: Avelumab/Bavencio (antibody, human IgG1, lambda)
heavy: not shown
light: QSALTQPASVSGSPGQSITISCTGTSSDVGGYNYVSWYQQHPGKAPKLMIYDVSNRPSGVSNRFSGSKSGNTASLTISGLQAEDEADYYCSSYTSSSTRVFGTGTKVTVLGQPKANPTVTLFPPSSEELQANKATLVCLISDFYPGAVTVAWKADGSPVKAGVETTKPSKQSNNKYAASSYLSLTPEQWKSHRSYSCQVTHEGSTVEKTVAPTECS
notes: also called MSB-0010718C
B3: Pembrolizumab/Keytruda (antibody, human IgG4 S228P, kappa)
heavy: not shown
light: EIVLTQSPATLSLSPGERATLSCRASKGVSTSGYSYLHWYQQKPGQAPRLLIYLASYLESGVPARFSGSGSGTDFTLTISSLEPEDFAVYYCQHSRDLPLTFGGGTKVEIKRTVAAPSVFIFPPSDEQLKSGTASVVCLLNNFYPREAKVQWKVDNALQSGNSQESVTEQDSKDSTYSLSSTLTLSKADYEKHKVYACEVTHQGLSSPVTKSFNRGEC
notes: also called Lambrolizumab; MK-3475
B4: IL-18 polypeptide C167 (ligand)
chain: YFGKLESKLSIIRNLNDQVLFIDQGNRPLFEDMTDSDARDNAPRTIFIISMYKDSQPRGMAVTISVKCEKISTLSAENKIISFKEMNPPDNIKDTKSDIIFFQRIVPGHDNKMQFESSSYEGYFLAAEKERDLFKLILKKEDELGDRSIMFTVQNED
notes: also called V11I, C38A, C76A, S105I, C127A
B5: IL-18 polypeptide of SEQ ID NO: 42 (E06K, K53A, S55A, T63A) (ligand)
chain: B4 chain with E6K, I11V, A38C, K53A, S55A, T63A, A76C, I105S, A127C
B6: IL-18 polypeptide of SEQ ID NO: 62 (E6K, C38A, K53A, C127A) (ligand)
chain: B4 chain with E6K, I11V, K53A, A76C, I105S

Each binder was assayed against T3, Composition B (Atezolizumab/Tecentriq conjugated to IL-18 polypeptide of SEQ ID NO: 30) (human, UniProt P0DOX5 2-449 = IgG part; P0DOX7 1-214; Q14116 37-193, chemical linker to the antibody; site not stated for this composition; chemical linker to IL-18; site not stated for this composition) (assay: ELISA; immunocytokine coated, receptor titrated, anti-His-HRP).
T3 construct: immunocytokine
Description: (§1) The interaction of the unmodified and of conjugated antibodies with human Fc gamma receptors I (FcγRI/CD64), with human Fc gamma receptors IIa (FcγRIIa/CD32a), with inhibitory human Fc gamma receptors IIb (FcγRIIb/CD32b), and with human Fc gamma receptors III FcγRIIIa/CD16 were measured by ELISA.
Briefly, Corning high-binding half-area plates (Fisher Scientific, Reinach, Switzerland) were coated overnight at 4° C. with 25 μl of unmodified and of conjugated anti-PD1 antibodies at 2.5 μg/ml in PBS. Plates were then washed four times with 100 μl of PBS-0.02% Tween20. Plates surfaces were blocked with 25 μl of PBS-0.02% Tween20-1% BSA at 37° C. during 1 h. Plates were then washed four times with 100 μl of PBS-0.02% Tween20. […] ELISA signal was then measured at 450 nm on an EnSpire plate reader from Perkin Elmer (Schwerzenbach, Switzerland). Binding Affinity of Reference Antibodies and Immunocytokines with Human Fc Gamma Receptors as Measured by ELISA

Kd [nM]	Binder
10.8	B1

Each binder was assayed against T4, recombinant biotinylated human FcRn (human, UniProt P55899 24-297; P61769 21-119, limits assumed, biotinylated) (assay: AlphaLISA competition at pH 6; competitor: human IgG on acceptor beads).
T4 construct: also called human neonatal Fc receptor (FcRn)
Description: The interaction of the unmodified and of conjugated anti-PD1 antibodies with the human neonatal Fc receptor (FcRn) at pH 6 was measured using the AlphaLISA® Human FcRn Binding Kit (AL3095C) from Perkin Elmer (Schwerzenbach, Switzerland).
After 90 min at 23° C. in the dark, AlphaLISA® signal was measured on an EnSpire plate reader (Excitation at 680 nm, Emission at 615 nm) from Perkin Elmer (Schwerzenbach, Switzerland). Binding Affinity of Reference Antibodies and Immunocytokines with the Human Neonatal Fc Receptor as Measured by AlphaLISA

Kd [nM]	Binder
5.36	B2
7.45	B3

These binders were tested against T1, human IL-18BP-His (assay: AlphaLISA of free IL-18BP).
Description: The plate is incubated further for 1 hr at room temperature. Under subdued light, 12.5 µL of 2× streptavidin (SA) donor beads are pipetted into each well, and the wells are incubated with shaking for an additional 30 min at room temperature. The AlphaLisa signal is then measured on an Enspire plate reader with 680 and 615 nm as excitation and emission wavelengths, respectively. The dissociation constant (K_D) is calculated based on a variable slope, four parameter analysis using GraphPad PRISM software.

Kd [nM]	Binder
0.04	B4
822	B5
69.6	B6

These binders were tested against T2, IL-18 receptor (IL-18Rα/IL-18Rβ) on … (assay: cell-based or functional assay).

EC50, IFNγ stimulation, NK92 cells [nM]	Binder
0.103	B4
0.144	B5
0.026	B6

The binders below were run against B1 (assay: ELISA; antibody coated, receptor titrated, anti-His-HRP).
Description: as §1
(§2) Briefly, Corning high-binding half-area plates (Fisher Scientific, Reinach, Switzerland) were coated overnight at 4° C. with 25 μl of unmodified and of conjugated anti-PD1 antibodies at 2.5 μg/ml in PBS. Plates were then washed four times with 100 μl of PBS-0.02% Tween20. Plates surfaces were blocked with 25 μl of PBS-0.02% Tween20-1% BSA at 37° C. during 1 h. Plates were then washed four times with 100 μl of PBS-0.02% Tween20. Then twenty-five microliters of either recombinant Human Fc gamma RI/CD64 Protein (R&D systems, 1257-FC-050, CF), recombinant Human Fc gamma RIIA/CD32a (H167) Protein (R&D systems, 9595-CD-050, CF), recombinant Human Fc gamma RIIB/CD32b Avi-tag Protein (R&D systems, AVI1875-050, CF), or recombinant Human Fc gamma RIIIA/CD16a Protein (R&D systems, 4325-FC-050; CF) were added in five-fold serial dilutions ranging from 1000 nM to 0.001 nM into PBS-0.02% Tween20-0.1% BSA and incubated at 37° C. during 2 h. Plates were then washed four times with 100 μl of PBS-0.02% Tween20. Twenty-five microliters of a 1/500 HRP-anti-His antibody in PBS—0.02% Tween20-0.1% BSA (R&D systems, anti-HIS—HRP Ab, #MAB050H) were added to each well and plates were incubated at Room Temperature during 1 h. Plates were then washed four times with 100 μl of PBS-0.02% Tween20. Fifty microliters of TMB substrate reagent (#CL07, Merck, Buchs, Switzerland) were added to each well and incubated at 37° C. during 5 min. After 5 min at 37° C., Horseradish peroxidase reaction was stopped by adding 50 μl/well of 0.5M H2SO4 stop solution. ELISA signal was then measured at 450 nm on an EnSpire plate reader from Perkin Elmer (Schwerzenbach, Switzerland). Binding Affinity of Reference Antibodies and Immunocytokines with Human Fc Gamma Receptors as Measured by ELISA

Kd [nM]	Binder
0.593	B3

These binders were tested against T5, recombinant Human Fc gamma RIIIA/CD16a Protein (R&D systems, 4325-FC-050) (human, UniProt P08637 17-208) in the same assay as above.
T5 construct: detected with an anti-His antibody; tag and allotype not described; also called FcγRIIIa (CD16)
Description: as §1, §2

Kd [nM]	Binder
1660	B3

Biological target: T2, IL-18 receptor (IL-18Rα/IL-18Rβ) on …
Test: cell-based or functional assay
Remark: another data set of the same source

EC50, HEK-Blue IL18R reporter cells [pM]	Binder
5.37	B4
0.79	B5
0.17	B6
